Biological target: T1, Human TROP2 Protein, His Tag (Acro Biosystems) (human, UniProt P09758 27-274)
T1 construct: not shown: His tag
T1 sequence (looked up): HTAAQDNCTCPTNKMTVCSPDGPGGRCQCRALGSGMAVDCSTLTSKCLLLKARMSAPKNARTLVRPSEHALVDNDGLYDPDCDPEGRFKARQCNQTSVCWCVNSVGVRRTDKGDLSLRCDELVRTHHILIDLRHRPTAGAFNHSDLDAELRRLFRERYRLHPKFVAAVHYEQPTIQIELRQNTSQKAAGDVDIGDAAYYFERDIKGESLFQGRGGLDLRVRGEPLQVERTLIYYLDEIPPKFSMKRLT
Assay: Octet BLI, IgG on anti-human Fc sensor; 3 = No binding

B1: MYT12395 (antibody, V domains shown)
VH: QVQLVQSGAEVKKPGASVKVSCKASGYTFTTAGMQWVRQAPGQGLEWMGWINTHSGVPKYAEDFKGRVTISADTSTSTAYLQLSSLKSEDTAVYYCARSGFGSSYWYFDVWGQGTLVTVSS
VL: DIQMTQSPSSLSASVGDRVTITCKASQDVSTAVAWYQQKPGKAPKLLIYSAHYRYTGVPSRFSGSGSGTDFTLTISSLQPEDFAVYYCHQHYITPLTFGQGTKLEIK
notes: datopotamab VL 52, 89 substituted
binding result: no binding (tested: 50 nM TROP2)
